Laboratory results taken from publication PMC5913134, “The IL-33-PIN1-IRAK-M axis is critical for type 2 immunity in IL-33-induced allergic airway inflammation” (Nature Communications, 2018).

Legend:
WT and PIN1 KO mice = assay: OVA-induced allergic asthma in mice; format: in vivo, mouse; conditions: OVA-challenged PIN1 KO vs WT mice
Protocol: Fig. 1 PIN1 is required for IL-33 to induces TH2 polarization and allergic inflammation. a 5 and15 min after IL-33 treatment of DC2.4 cells, cells were extracted and PIN1 activity was measured as previously described. Inset: PIN1 was immune precipitated and immune blotted for PIN1 or Ser71 phosphorylation as indicated. b WT and PIN1 KO MEF’s were treated with different concentrations of IL-33 for 24 h and the medium was measured for IL-6 secretion. c WT and PIN1 KO mice were treated with 200 ng/mice/day for 4 consecutive days and the BALF was examined for IL-4, 5, 6 and 13 by ELISA. d H&E staining representative of lungs from WT and PIN1 KO mice treated with IL-33 (n = 4). Scale bar = 50 µm. e Total cell number in the BALF of WT and PIN1 KO mice was measured using HEMAVET multispecies hematology analyzer. f Eosinophil cell number in the BALF of WT and PIN1 KO mice was measured using HEMAVET multispecies hematology analyzer. g Representative H&E staining of lung sections from WT and PIN1 KO mice after OVA-induced allergic asthma (n = 4). Scale bar = 50 µm. h IL-4, -5, -13 and IL-33 levels in the BALF of WT and PIN1 KO mice after OVA-induced allergic asthma. The groups were compared using Mann-Whitney U test (i) Total cell number in the BALF of WT and PIN1 KO mice before and after OVA-induced allergic asthma. The data were analyzed by a Student’s two-tailed t test unless stated otherwise, and the values are reported as mean ± standard errors of the means (SEM). *- statistical significance (P < 0.05), **- significance (P < 0.01)

PIN1-IRAK-M interaction = assay: Co-immunoprecipitation of PIN1 and IRAK-M; format: binding; conditions: stably expressing DC2.4 cells, with/without IL-33
Protocol: (§1) Fig. 2 IL-33 induces IRAK-M phosphorylation and binding to PIN1. a GST PIN1 pulldown assay with DC2.4 cell extracts either non-treated or treated with IL-33 (100 ng/ml) or LPS (100ng/ml) for 1 h. […] The cells were washed with fresh medium and treated with 100 ng/ml IL-33 for the indicated times prior to IRAK-M immunoprecipitation. d DC2.4 cells stably expressing IRAK-M were treated with IL-33 and at the indicated time points were subjected to CO-IP using anti-PIN1 antibody and blotted for IRAK-M. e HEK293 cells were transfected with different IRAK-M constructs expressing the N’ terminal domain (aa1-220), the middle portion of the protein (aa220-440) or the C’ terminal domain (aa 440-630), and then treated with IL-33, followed by CO-IP for PIN1. f DC2.4 cells stably expressing IRAK-M were treated with IL-33 and subjected to GST or GST-PIN1 pull-down.
Cells from one 10-cm dish were homogenized in lysis buffer containing 150 mM NaCl, 1% NP-40, 0.5% deoxycholate, 0.1% SDS, 50 mM Tris-HCl (pH 7.7), 1 mM phenylmethylsulfonyl fluoride (PMSF), 1 mM dithiothreitol, and protease inhibitors. Clarified supernatants were incubated with pre incubated immobilized beads rProtein A agarose beads (RepliGen) premixed with PIN1, GFP or IRAK-M antibody or, as a control, IgG overnight at 4 °C. The beads were washed extensively with lysis buffer before elution in SDS sample buffer.

IRAK-M [1] = assay: IRAK-M protein stability, cycloheximide chase; format: cell-based; conditions: mutant IRAK-M, WT MEFs; reproduced in DC2.4 cells
Protocol: Fig. 4 PIN1 increases IRAK-M protein stabilization. a After IRAK-M and GFP were coexpressed in WT and PIN1 KO MEFs for 24 h, cells were split equally into 5 dishes. 24 h later cells were treated with cyclohexamide and harvested to monitor IRAK-M, GFP and PIN1 levels at the time points indicated. b Quantification of 3 independent experiments as in a. c WT MEFs stably expressing the TET on inducible short hairpin for PIN1 (shPin1) or pLKO as a control, were expressed with IRAK-M, followed by induction with Doxycycline for 18 h prior to the cyclohexamide chase. d Quantification of 3 independent experiments as in c. e BMDCs from WT or PIN1 KO mice were treated with IL-33 and the levels of IRAK-M were monitored at different time points after induction. f Quantification of 3 independent experiments as in e. g PIN1 KO MEFs were expressed with IRAK-M alone or in combination with PIN1 or its mutants W34A or K63A for 24 h, followed by the cyclohexamide chase to assay IRAK-M stability. h Quantification of 3 independent experiments as in g. i IRAK-M or its different mutants; S110A, S110E and P111A were expressed in WT MEFs, followed by the cyclohexamide chase to assay IRAK-M stability. j Quantification of 3 independent experiments as in i. k IRAK-M or its different mutants were stably expressed in DC2.4 cells, followed by the cyclohexamide chase to monitor IRAK-M stability. l Quantification of 3 independent experiments as in k. The data were analyzed by a Student’s two-tailed t test and the values are reported as mean ± standard errors of the means (SEM). *- statistical significance (P < 0.05), **- significance (P < 0.01)

IRAK-M [2] = assay: IRAK-M nuclear localization in DC2.4 cells; format: cell-based, C57BL/6; conditions: stably expressed in DC2.4 cells
Protocol: Suppl em enta ry Figur e 3. a DAPI IR AK-M Pin1 Mergeb […]
Supplementary Figure 3. Pin1 targets IRAK-M and promotes its nuclear translocation upon IL-33 induction.
(a) Immunostaining for IRAK-M and Pin1 in DC2.4 cells before and after IL-33 treatment. ( b) DC2.4 cells were treated with IL-33 and subjected to nuclear/cytoplasmic fractionation, followed by Western blot for IRAK-M with actin as a cytoplasmic marker and Fox1 as a nuclear marker. C- cytoplasmic; N- Nuclear.
(c) Cytospin slides from BALF of the treated WT mice as indicated, were co stained for DC205 and IRAK-M.
(d) IRAK-M or its mutants S110E or P111A were stably expressed in DC2.4 cells and their localization and Pin1 localization were monitored by immunostaining. (e) GFP-IRAK-M were expressed in Pin1 KO MEFs either with or without RFP-Pin1 as indicated, and their localization was monitored. Scale = 50 µm.
(also on this page, place not known: Control +IL-33: b DAPIe MergeGFP RFP GFP- GFP-IRAK-M/ RFP MergeIRAK-M Pin1DAPI ControlIL-33 Mergec Supplementary Figure IRAK-M IRAK-M (b) IL-33 IRAK-M IRAK-M Pin1) […]

IRAK-M [3] = assay: IRAK-M phosphorylation in DC2.4 cells; format: cell-based, C57BL/6; conditions: DC2.4 stably expressing mutant, IL-33
Protocol: as §1

[4] = format: physicochemical
Excerpt: The IRAK-M[1–119] gene was encoded into the pMAL-c2X vector with N-terminal fusion partner MBP, separated by a Factor XA cleavage site. The R56D and Y61D mutations were achieved using this vector, a single primer (forward primer, with mutations underlined: 5’ […] 3’) and the BIO RAD-iProof High-Fidelity DNA Polymerase to generate expression plasmid pMAL-c2X encoding the MBP- IRAK-M[1-119:R56D,Y61D] fusion protein, with a Factor XA cut site between MBP and IRAK-M[1-119:R56D,Y61D]. To produce uniformly ^15N-labeled MBP-IRAK-M[1-119:R56D,Y61D] in E. coli, transformed cells were grown in M9 minimal media with ^15NH4Cl as the sole nitrogen source, and were induced at OD600 by adding 0.4 mM final concentration of IPTG at 25 °C for 20~22 h. Cells were harvested by centrifugation at 3500 g, the cell pellet was dissolved in IRAK-M wash buffer (20 mM Tris, 200 mM NaCl, 1 mM EDTA, and 0.2 mM TCEP, pH 7.4), and sonicated on ice. Cell debris was removed by centrifugation, the supernatant was incubated with 5 mL of Amylose Resin (BioLabs) pre-equilibrated with IRAK-M wash buffer. The column was washed with 4 bed volumes of IRAK-M wash buffer, and the fusion protein was eluted with 2 bed volumes of elution buffer (10 mM of Maltose added to IRAK-M wash buffer). […] IRAK-M[1-119:R56D,Y61D] concentration was measured by UV absorption at 280 nm (extinction coefficient = 25105 cm^-1 M^-1). […]

B1: OVA: ovalbumin (OVA), inducer of model of allergic asthma (protein, UniProt P01012 2-386, looked up)
Ovalbumin: GSIGAASMEFCFDVFKELKVHHANENIFYCPIAIMSALAMVYLGAKDSTRTQINKVVRFDKLPGFGDSIEAQCGTSVNVHSSLRDILNQITKPNDVYSFSLASRLYAEERYPILPEYLQCVKELYRGGLEPINFQTAADQARELINSWVESQTNGIIRNVLQPSSVDSQTAMVLVNAIVFKGLWEKAFKDEDTQAMPFRVTEQESKPVQMMYQIGLFRVASMASEKMKILELPFASGTMSMLVLLPDEVSGLEQLESIINFEKLTEWTSSNVMEERKIKVYLPRMKMEEKYNLTSVLMAMGITDVFSSSANLSGISSAESLKISQAVHAAHAEINEAGREVVGSAEAGVDAASVSEEFRADHPFLFCIKHIATNAVLFFGRCVSP
- BALF total cells count (WT and PIN1 KO mice): reduced BALF total cells count
- TH2 cytokine levels in BALF (WT and PIN1 KO mice): reduced TH2 cytokine levels
- lung inflammation (WT and PIN1 KO mice): reduced lung inflammation

B2: S110E: IRAK-M full protein phosphomimetic mutant S110E (protein)
chain: MAGNCGARGALSAHTLLFDLPPALLGELCAVLDSCDGALGWRGLAERLSSSWLDVRHIEKYVDQGKSGTRELLWSWAQKNKTIGDLLQVLQEMGHRRAIHLITNYGAVLEPSEKSYQEGGFPNILFKETANVTVDNVLIPEHNEKGILLKSSISFQNIIEGTRNFHKDFLIGEGEIFEVYRVEIQNLTYAVKLFKQEKKMQCKKHWKRFLSELEVLLLFHHPNILELAAYFTETEKFCLIYPYMRNGTLFDRLQCVGDTAPLPWHIRIGILIGISKAIHYLHNVQPCSVICGSISSANILLDDQFQPKLTDFAMAHFRSHLEHQSCTINMTSSSSKHLWYMPEEYIRQGKLSIKTDVYSFGIVIMEVLTGCRVVLDDPKHIQLRDLLRELMEKRGLDSCLSFLDKKVPPCPRNFSAKLFCLAGRCAATRAKLRPSMDEVLNTLESTQASLYFAEDPPTSLKSFRCPSPLFLENVPSIPVEDDESQNNNLLPSDEGLRIDRMTQKTPFECSQSEVMFLSLDKKPESKRNEEACNMPSSSCEESWFPKYIVPSQDLRPYKVNIDPSSEAPGHSCRSRPVESSCSSKFSWDEYEQYKKE
- PIN1 interaction (CO-IP), IRAK-M mutants (PIN1-IRAK-M interaction): much weaker PIN1 interaction was evident before IL-33 stimulation
- resistance of IRAK-M to degradation (IRAK-M [1]): completely resistant to degradation
- nuclear localization of mutant IRAK-M (IRAK-M [2]): higher nuclear localization

B3: P111A: IRAK-M mutant that eliminates the PIN1 consensus motif (protein)
chain: MAGNCGARGALSAHTLLFDLPPALLGELCAVLDSCDGALGWRGLAERLSSSWLDVRHIEKYVDQGKSGTRELLWSWAQKNKTIGDLLQVLQEMGHRRAIHLITNYGAVLSASEKSYQEGGFPNILFKETANVTVDNVLIPEHNEKGILLKSSISFQNIIEGTRNFHKDFLIGEGEIFEVYRVEIQNLTYAVKLFKQEKKMQCKKHWKRFLSELEVLLLFHHPNILELAAYFTETEKFCLIYPYMRNGTLFDRLQCVGDTAPLPWHIRIGILIGISKAIHYLHNVQPCSVICGSISSANILLDDQFQPKLTDFAMAHFRSHLEHQSCTINMTSSSSKHLWYMPEEYIRQGKLSIKTDVYSFGIVIMEVLTGCRVVLDDPKHIQLRDLLRELMEKRGLDSCLSFLDKKVPPCPRNFSAKLFCLAGRCAATRAKLRPSMDEVLNTLESTQASLYFAEDPPTSLKSFRCPSPLFLENVPSIPVEDDESQNNNLLPSDEGLRIDRMTQKTPFECSQSEVMFLSLDKKPESKRNEEACNMPSSSCEESWFPKYIVPSQDLRPYKVNIDPSSEAPGHSCRSRPVESSCSSKFSWDEYEQYKKE
- PIN1 interaction (CO-IP), IRAK-M mutants (PIN1-IRAK-M interaction): totally abolished
- IRAK-M phosphorylation (mutant) (IRAK-M [3]): totally abolished
- decrease of IRAK-M protein stability (IRAK-M [1]): ~ 50%

B4: IRAK-M[1–119]: recombinant IRAK-M residues 1–119 including the DD (protein, UniProt Q8K4B2 1-119, looked up, fragment)
chain: MAGRCGARGALSPQLLLFDLPPALLGELCGILDSCDGPLGWRGLAERLSNSWLDVRHIEKYVNQGKSGTRELLWSWAQKNKTIGDLLEVLQDMGHQRAIHLIINYGVSWTPSVQTHHEL
- solubility of cleaved protein [4]: precipitated under all conditions explored
